B1: HENV-98 (antibody, V domains shown)
VH: AVQLVESGGGLVQPGGSLRLSCEASGFTFSGYWMSWVRQAPGKGLEWVANIKGDGSEKYYVDSVKGRFTIFRDNAKTSLYLQVNSLRAEDTAVYYCARERHFLAARPGYYIYSGLDVWGPGTTVTVSS
VL: DIQMTQSPSSLSASVGDRVTITCRASQSIDNYLNWYQQKPGKVPKLLIYAASNLQSGVPSKFSGGGSGTDFTLTISSLQPDDFATYYCQQSFGTPRTFGQGTRVEIK
B2: HENV-150 (antibody, V domains shown)
VH: EVQLLESGGGLVQPGGSLRLSCAASGFTFSSSAMSWVRQTPGKGLEWVSTISGSGANTYYAASVKGRFPISRDNSKNTLFLQMNSLRAEDTAVYYCAKVSTVTFGGHVPRGSYFDYWGQGTQVTVSS
VL: SYVLTQPPSVSVAPGQTARIPCGGNNIGSKSVHWYQQKPGQAPVLVVYDENDRPSGIPERFSASKSGNTATLTISRVEAGDEADYYCQVWDSRSDHYVFGTGTKVTVL
B3: HENV-188 (antibody, V domains shown)
VH: QVQVVESGGGVVHPGRSLRLSCAGSGFIFNNYAFHWVRQAPGGGLEWMAYISYDGRYKYYAASVRGRFTISRDDSKNTLYLQMSSLRTEDTALYYCAISDYAEPLDNWGQGTLVTVSS
VL: QIVLTQSPATLSLSPGDRATLSCRASQSVSSNVAWYQQKPGQAPRLLIYNVSNRATGIPARFSGSGSGTDFTLTISSLEPEDFAVYYCHQRTNWPLTFGGGTKVEIK
B4: HENV-83 (antibody, V domains shown)
VH: QVQLVESGGGVVQPGGSLRLSCAASGFTFRSYSMNWVRQAPGKGPEWMAVISYDGSNKYYTDSVKGRFTISRDNSKNTLNLQMNSLTSEDTAIYYCARFRGGGRIAARPDDYGMDVWGQGTTVTVST
VL: DIQMTQSPSSLSASVGDRVTITCRASESVITYLNWYQQKPGKAPKLLIYGASTLESGVPSRFSGSGSGTVFTLTISSLQPEDIATYYCQQSYNMSPYTFGQGTKLEIK
B5: HENV-99 (antibody, V domains shown)
VH: QVLLVQSGAEVRKPGASVKVSCRASGYTFTDYYMHWVRQAPGQGLEWMGWINPNSGATKYAQKFQGRVTLTRDTSINTAYMELSGLRSVDTAVFYCASVPPSGFFYWGSDYWGQGTLVTVSS
VL: DVVLTQSPLSLPVTLGQPASISCRSSQSLVYSDGTTYLNWFQQRPGQSPRRLIYKVSYRDSGVPDRFSGSGSGTDFTLEISRVEAEDVGIYYCMHGTHWETWTFGQGTKVEIK
B6: HENV-141 (antibody, V domains shown)
VH: QVQLVQSGAEVKKPGSSVKVSCKASGGTFSSYTISWVRQAPGQGLEWMGRIIPISGITNYAQKFQGRVTITADKSTSTAYMELSSLRSEDTAVYYCAKDCYYGSGTYYGCRADYQWHHTMDVWGQGTTVTVSS
VL: DIQMTQSPSSLSASVGDRVTITCRASQGIRNDLGWFQQKPGKAPKRLIYAASSLQSGVPSRFSGSGSGTEFTLTISSLQPEDFATYFCLQHNTYPLTFGQGTKVEIK
B7: HENV-122 (antibody, V domains shown)
VH: EVQLLESGGGLVQPGGSLRLSCAASGFTFSTNAMSWVRQAPGKGLEWVSTVSGSGAHPNYGDSVKGRFTISRVNSKNTLFLQMSSLRAEDTAIYYCARVSTVTVGGHIPRGYYFDYWGQGTLVTVSS
VL: EILLTQSPGTLSLSPGERATLSCRASQSASSSYLAWYQQKPGQAPRLLIYGASTRATGIPDRFSGSGSGTEFTLTISRLESEDFAVYYCHHYGSSRTFGQGTKVEVK
B8: HENV-117 (antibody, V domains shown)
VH: QVQLQQWGAGLLKPSETLSLTCDLSGGSFTNYYWTWIRHLPGKGLEWLGEINHSGRTNYSPSLKSRVTISVDTSKNQFSLRLSSVTAADTAVYYCARDIRKLAPKPHSYDLYYGMDVWGQGTTVTVSS
VL: EIVLTQSPGTLSLSPGERATLSCRASQSVGSNYLTWYQQKPGQPPRLLIYGASNRAAGIPDRFSGSGSGTDFTLTISRLEPEDFAVYYCQQYETSSRTFGQGTKVDIR
B9: HENV-242 (antibody, V domains shown)
VH: QVQLVQSGAEVKKPGSSVTVSCKTSGGTFSGYAVSWVRQAPGQGLEWMGRIVPQFNIPNYAQKFQDRVTITADESTGTSYMELSSLRSDDTAVFYCARENIQTIFGVVAMMGGGGYFDSWGQGTLVTVSS
VL: DIQMTQSPSSLSASVGDRVTITCQANQDINTYLNWYLQKPGKAPQLLVFDASNLVTGVPSRFSGGGSRTDFTLTIDSLQPEDIGTYYCQQYDHLPRRTFTFGPGTKVDLK
B10: HENV-58 (antibody, V domains shown)
VH: QVQLVQSGAEVKKPGSSVKVSCKASGGTFSNYVISWVRQAPGQGFEWMGRIIPMIGISNYAQKFQDRVTITADKDESTTTAYMELRGLRSEDTAMYYCASSTVTEVGAWGQGTLVTVSS
VL: AIQLTQSPSSLSASIGDRVTITCRASQGISSALAWFQQKPGKPPILLIYDASSLESGVPARFSGSGSGTDFTLTISSLQPEDFATYYCQQFYNHPLTFGPGTKVDIK
B11: HENV-184 (antibody, V domains shown)
VH: QVQLVQSGTEVKNPGSSVKVSCKASGGTFSGFGISWVRQAPGQGLEWMGGVLPIFGSPNYAQKFQGRVTITADESTGTAYMDLSSLRSDDTAMYYCARDQSGGFFDYWGQGTLVIVSS
VL: EIVLTQSPATLSLSPGERATLSCRASQSVSSNLAWYQQKPGQAPRLLIYDASDRATGVPARFSGSGSGTDFTLTISSLEPEDFALYYCQQRYNWRVTFGQGTRLEIK
B12: HENV-103 (antibody, V domains shown)
VH: QVQLQGSGPGLVKPSQTLSLTCSVSGGSVSRSGYYWGWIRQHPGKGLECIGYIYYSGITYYNPSLSGRLTISVDTSKNQFSLELSSVTAADTAVYYCARVWLGGGVFDFWGQGSLVTVSS
VL: EIVMTQSPATLSVSPGEGATLSCRASQSVSSNLAWYQQKPGQAPRLLIYDASTRATGIPARFSGSGSGTEFTLTISSLQSEDFAVYYCQQYNDWRTFGRGTKVEMR
B13: HENV-142 (antibody, V domains shown)
VH: QVRLQESGPRLVKPSQTLSLTCTVSGGSISSRDYYWSWIRQHPGKGLEWIGYIYYSGTTYYNPSLESRVTLSLDTSKNQFSLDLTSVTAADTAVYHCARVWLGGGVFDFWGQGTLVTVSA
VL: EIVMTQSPDTLSVSPGERATLSCRASHSVTTNLAWYQQRPGQAPRLLIFDASTRATGIPARFSGSGSGTEFTLTIGSLQSEDFAVYYCQQYNDGRTFGQGTKVEIK
B14: HENV-226 (antibody, V domains shown)
VH: EERLVQSGGGLAQPGQSLRLSCAGFGFTFTRYEMNWVRQAPGKGLEWIAHISTRGDTISYADSVKGRATISRDDTNNSLDLQMDSLRAEDTAIYFCARDRGSLSTRPPDSYHYYYHGMDVWGQGTTVIVSS
VL: EIVLTQSPATLSLSPGERATLSCRASQSIDTYLAWYQQKPGQAPRLLIYDASNRATGIPARFSGSGSGTDFSLTISSLEPDDFAVYYCQQRSNRPPRYTFGLGTRLEIK
B15: HENV-100 (antibody, V domains shown)
VH: QVQLVQSGAEVKKPGASVKVSCKASGYTFTSYYINWVRQAPGQGLEWVGTINPSGGSTTYAQKFQGRVTVTRDTSTSTVYMDLSGLRSGDTAVYYCARDRKGLAATPVYSDYYYGMDVWGQGTTVTVSS
VL: EIVLTQSPATLSLSPGERATLSCRASQSVSSFLAWYQQKPGQAPRLLISDASKRATGIPARFSGSGSGTDFSLTISSLEAEDFAVYYCQQSTNWRITFGQGTRLELK
B16: HENV-137 (antibody, V domains shown)
VH: EVQLVESGGGLVQPRGSLRLSCAASGFTFSGYWMSWVRQAPGKGLEWVAKIKKDGSEKTYVDSVKGRFTISRDNAKDSLYLQMNSLRAEDTAVYYCARERLLVPAAIVGLDYYYAMDVWGQGTTVTVSS
VL: DIQMTQSPSSLSASVGDRVTITCRASQNMSTYLNWYQQKPGKAPKFLIYGASRLQNGVPSRFSGGGSGTDFTLTISSLQPEDFATYYCQQSYNIPITFGQGTRLEIK

The target of this assay is NiVB-G (Nipah virus, strain Bangladesh).
Consider B1, for which the EC50 worked out at 0.58 nM.
With B2, the EC50 was 0.332 nM.
With B3, the EC50 came out at 1.26 nM.
The result for B4 reads 2.79 nM.
In the case of B5, the EC50 came out at 1.16 nM.
Next, B6: 0.778 nM; B7: 0.382 nM; B8: 1.2 nM.
B9 had an EC50 of 7.67 nM.
The result for B10 reads 1.44 nM; that for B11, 2.32 nM; that for B12, 1.34 nM.
Next, B13: 13 nM.
The result for B14 reads 0.361 nM; that for B15, 0.514 nM.
In the case of B16, the EC50 amounted to 0.84 nM.

(Values after patent publication US12559545.)
